Numbered stars: 1 amine (or outer) side, 2 acyl side, 3 side chain; on linkers, the order of the positions; unused ones are H or OH. Bridge positions count the residues as written; N and C are the ends. Side chains are listed from the residue outwards. Ends that are not written are not given here. * marks the point of attachment. C20 diacid = O=C(O)CCCCCCCCCCCCCCCCCCC(=O)*; γGlu = O=C(O)[C@H](CCC(=O)[*:2])N[*:1]; AEEA = NCCOCCOCC(=O)O
T1: human amylin receptor (human, UniProt P30988 25-474; O60896 24-148, limits assumed)
T1 construct: whole, on cells; Calcitonin receptor plus RAMP-3 gives the amylin 3(a) receptor; membranes of Amylin 3(a)/CRE-luc cells were used; also called hAmylin-R; hAmylinR
T1 sequence (looked up) 1: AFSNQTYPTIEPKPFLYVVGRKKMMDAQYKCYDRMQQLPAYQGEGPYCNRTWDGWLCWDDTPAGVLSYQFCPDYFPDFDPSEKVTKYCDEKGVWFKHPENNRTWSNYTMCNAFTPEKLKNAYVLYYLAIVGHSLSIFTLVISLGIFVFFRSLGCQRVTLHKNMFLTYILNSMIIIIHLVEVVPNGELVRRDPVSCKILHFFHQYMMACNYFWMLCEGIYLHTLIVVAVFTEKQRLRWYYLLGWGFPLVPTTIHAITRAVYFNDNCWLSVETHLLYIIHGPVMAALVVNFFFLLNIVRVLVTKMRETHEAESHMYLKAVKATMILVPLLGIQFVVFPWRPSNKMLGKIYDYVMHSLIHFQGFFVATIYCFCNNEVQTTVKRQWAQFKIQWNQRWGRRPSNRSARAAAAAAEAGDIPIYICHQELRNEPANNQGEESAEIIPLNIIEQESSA
T1 sequence (looked up) 2: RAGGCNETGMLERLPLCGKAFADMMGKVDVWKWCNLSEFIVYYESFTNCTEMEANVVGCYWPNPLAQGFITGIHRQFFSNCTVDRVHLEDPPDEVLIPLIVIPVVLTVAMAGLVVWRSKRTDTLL

B1: N^α1-[(4S)-4-carboxy-4-(19-carboxynonadecanoylamino)butanoyl]-[Glu14,Arg17,Pro21,Pro27]-h-amylin (peptide)
peptide: KCNTATCATQRLAEFLRHSSPNFGAIPSSTNVGSNTY
modifications: C20 diacid-gGlu on the alpha amino group of the N-terminal residue; disulfide Cys2-Cys7 and C-terminal amide as in human amylin
notes: also called 14E, 17R, 21P, 27P
B2: N^ε1-[2-[2-[2-[[2-[2-[2-[[(4S)-4-carboxy-4-(19-carboxynonadecanoylamino)butanoyl]amino]ethoxy]ethoxy]acetyl]amino]ethoxy]ethoxy]acetyl]-[Arg17,Pro21,Pro27,Glu35 … (peptide)
peptide: K([AEEA-AEEA-γGlu-C20 diacid])CNTATCATQRLANFLRHSSPNFGAIPSSTNVGSETY-NH2
modifications: disulfide 2-7; N-terminus assumed
SMILES: CC[C@H](C)[C@H](NC(=O)[C@H](C)NC(=O)CNC(=O)[C@H](Cc1ccccc1)NC(=O)[C@H](CC(N)=O)NC(=O)[C@@H]1CCCN1C(=O)[C@H](CO)NC(=O)[C@H](CO)NC(=O)[C@H](Cc1c[nH]cn1)NC(=O)[C@H](CCCNC(=N)N)NC(=O)[C@H](CC(C)C)NC(=O)[C@H](Cc1ccccc1)NC(=O)[C@H](CC(N)=O)NC(=O)[C@H](C)NC(=O)[C@H](CC(C)C)NC(=O)[C@H](CCCNC(=N)N)NC(=O)[C@H](CCC(N)=O)NC(=O)[C@@H](NC(=O)[C@H](C)NC(=O)[C@@H]1CSSC[C@H](NC(=O)[C@@H](N)CCCCNC(=O)COCCOCCNC(=O)COCCOCCNC(=O)CC[C@H](NC(=O)CCCCCCCCCCCCCCCCCCC(=O)O)C(=O)O)C(=O)N[C@@H](CC(N)=O)C(=O)N[C@@H]([C@@H](C)O)C(=O)N[C@@H](C)C(=O)N[C@@H]([C@@H](C)O)C(=O)N1)[C@@H](C)O)C(=O)N1CCC[C@H]1C(=O)N[C@@H](CO)C(=O)N[C@@H](CO)C(=O)N[C@H](C(=O)N[C@@H](CC(N)=O)C(=O)N[C@H](C(=O)NCC(=O)N[C@@H](CO)C(=O)N[C@@H](CCC(=O)O)C(=O)N[C@H](C(=O)N[C@@H](Cc1ccc(O)cc1)C(N)=O)[C@@H](C)O)C(C)C)[C@@H](C)O
notes: also called 17R, 21P, 27P, 35E
B3: N^α1-[(4S)-4-carboxy-4-[[(4S)-4-carboxy-4-(19-carboxynonadecanoylamino)butanoyl]amino]butanoyl]-[Glu14,Arg17,Pro21,Pro27,Pro37]-h-amylin (peptide)
peptide: {C20 diacid-γGlu-γGlu}-KCNTATCATQRLAEFLRHSSPNFGAIPSSTNVGSNTP-NH2
modifications: disulfide 2-7
SMILES: CC[C@H](C)[C@H](NC(=O)[C@H](C)NC(=O)CNC(=O)[C@H](Cc1ccccc1)NC(=O)[C@H](CC(N)=O)NC(=O)[C@@H]1CCCN1C(=O)[C@H](CO)NC(=O)[C@H](CO)NC(=O)[C@H](Cc1c[nH]cn1)NC(=O)[C@H](CCCNC(=N)N)NC(=O)[C@H](CC(C)C)NC(=O)[C@H](Cc1ccccc1)NC(=O)[C@H](CCC(=O)O)NC(=O)[C@H](C)NC(=O)[C@H](CC(C)C)NC(=O)[C@H](CCCNC(=N)N)NC(=O)[C@H](CCC(N)=O)NC(=O)[C@@H](NC(=O)[C@H](C)NC(=O)[C@@H]1CSSC[C@H](NC(=O)[C@H](CCCCN)NC(=O)CC[C@H](NC(=O)CC[C@H](NC(=O)CCCCCCCCCCCCCCCCCCC(=O)O)C(=O)O)C(=O)O)C(=O)N[C@@H](CC(N)=O)C(=O)N[C@@H]([C@@H](C)O)C(=O)N[C@@H](C)C(=O)N[C@@H]([C@@H](C)O)C(=O)N1)[C@@H](C)O)C(=O)N1CCC[C@H]1C(=O)N[C@@H](CO)C(=O)N[C@@H](CO)C(=O)N[C@H](C(=O)N[C@@H](CC(N)=O)C(=O)N[C@H](C(=O)NCC(=O)N[C@@H](CO)C(=O)N[C@@H](CC(N)=O)C(=O)N[C@H](C(=O)N1CCC[C@H]1C(N)=O)[C@@H](C)O)C(C)C)[C@@H](C)O
notes: also called 14E, 17R, 21P, 27P, 37P
B4: N^ε1-[2-[2-[2-(19-carboxynonadecanoylamino)ethoxy]ethoxy]acetyl]-[Arg17,Pro21,Pro27,His34]-h-amylin (peptide)
peptide: K([AEEA-C20 diacid])CNTATCATQRLANFLRHSSPNFGAIPSSTNVGHNTY-NH2
modifications: disulfide 2-7; N-terminus assumed
SMILES: CC[C@H](C)[C@H](NC(=O)[C@H](C)NC(=O)CNC(=O)[C@H](Cc1ccccc1)NC(=O)[C@H](CC(N)=O)NC(=O)[C@@H]1CCCN1C(=O)[C@H](CO)NC(=O)[C@H](CO)NC(=O)[C@H](Cc1c[nH]cn1)NC(=O)[C@H](CCCNC(=N)N)NC(=O)[C@H](CC(C)C)NC(=O)[C@H](Cc1ccccc1)NC(=O)[C@H](CC(N)=O)NC(=O)[C@H](C)NC(=O)[C@H](CC(C)C)NC(=O)[C@H](CCCNC(=N)N)NC(=O)[C@H](CCC(N)=O)NC(=O)[C@@H](NC(=O)[C@H](C)NC(=O)[C@@H]1CSSC[C@H](NC(=O)[C@@H](N)CCCCNC(=O)COCCOCCNC(=O)CCCCCCCCCCCCCCCCCCC(=O)O)C(=O)N[C@@H](CC(N)=O)C(=O)N[C@@H]([C@@H](C)O)C(=O)N[C@@H](C)C(=O)N[C@@H]([C@@H](C)O)C(=O)N1)[C@@H](C)O)C(=O)N1CCC[C@H]1C(=O)N[C@@H](CO)C(=O)N[C@@H](CO)C(=O)N[C@H](C(=O)N[C@@H](CC(N)=O)C(=O)N[C@H](C(=O)NCC(=O)N[C@@H](Cc1c[nH]cn1)C(=O)N[C@@H](CC(N)=O)C(=O)N[C@H](C(=O)N[C@@H](Cc1ccc(O)cc1)C(N)=O)[C@@H](C)O)C(C)C)[C@@H](C)O
notes: also called 17R, 21P, 27P, 34H
B5: N^ε1-[2-[2-[2-(19-carboxynonadecanoylamino)ethoxy]ethoxy]acetyl]-[His14,Arg17,Pro21,Pro27]-h-amylin (peptide)
peptide: K([AEEA-C20 diacid])CNTATCATQRLAHFLRHSSPNFGAIPSSTNVGSNTY-NH2
modifications: disulfide 2-7; N-terminus assumed
SMILES: CC[C@H](C)[C@H](NC(=O)[C@H](C)NC(=O)CNC(=O)[C@H](Cc1ccccc1)NC(=O)[C@H](CC(N)=O)NC(=O)[C@@H]1CCCN1C(=O)[C@H](CO)NC(=O)[C@H](CO)NC(=O)[C@H](Cc1c[nH]cn1)NC(=O)[C@H](CCCNC(=N)N)NC(=O)[C@H](CC(C)C)NC(=O)[C@H](Cc1ccccc1)NC(=O)[C@H](Cc1c[nH]cn1)NC(=O)[C@H](C)NC(=O)[C@H](CC(C)C)NC(=O)[C@H](CCCNC(=N)N)NC(=O)[C@H](CCC(N)=O)NC(=O)[C@@H](NC(=O)[C@H](C)NC(=O)[C@@H]1CSSC[C@H](NC(=O)[C@@H](N)CCCCNC(=O)COCCOCCNC(=O)CCCCCCCCCCCCCCCCCCC(=O)O)C(=O)N[C@@H](CC(N)=O)C(=O)N[C@@H]([C@@H](C)O)C(=O)N[C@@H](C)C(=O)N[C@@H]([C@@H](C)O)C(=O)N1)[C@@H](C)O)C(=O)N1CCC[C@H]1C(=O)N[C@@H](CO)C(=O)N[C@@H](CO)C(=O)N[C@H](C(=O)N[C@@H](CC(N)=O)C(=O)N[C@H](C(=O)NCC(=O)N[C@@H](CO)C(=O)N[C@@H](CC(N)=O)C(=O)N[C@H](C(=O)N[C@@H](Cc1ccc(O)cc1)C(N)=O)[C@@H](C)O)C(C)C)[C@@H](C)O
notes: also called 14H, 17R, 21P, 27P
B6: N^α1N^α1-[(4S)-4-carboxy-4-(19-carboxynonadecanoylamino)butanoyl]-[Glu14,Arg17,Pro21,Pro27,Glu35]-h-amylin (peptide)
peptide: {C20 diacid-γGlu}-KCNTATCATQRLAEFLRHSSPNFGAIPSSTNVGSETY-NH2
modifications: disulfide 2-7
SMILES: CC[C@H](C)[C@H](NC(=O)[C@H](C)NC(=O)CNC(=O)[C@H](Cc1ccccc1)NC(=O)[C@H](CC(N)=O)NC(=O)[C@@H]1CCCN1C(=O)[C@H](CO)NC(=O)[C@H](CO)NC(=O)[C@H](Cc1c[nH]cn1)NC(=O)[C@H](CCCNC(=N)N)NC(=O)[C@H](CC(C)C)NC(=O)[C@H](Cc1ccccc1)NC(=O)[C@H](CCC(=O)O)NC(=O)[C@H](C)NC(=O)[C@H](CC(C)C)NC(=O)[C@H](CCCNC(=N)N)NC(=O)[C@H](CCC(N)=O)NC(=O)[C@@H](NC(=O)[C@H](C)NC(=O)[C@@H]1CSSC[C@H](NC(=O)[C@H](CCCCN)NC(=O)CC[C@H](NC(=O)CCCCCCCCCCCCCCCCCCC(=O)O)C(=O)O)C(=O)N[C@@H](CC(N)=O)C(=O)N[C@@H]([C@@H](C)O)C(=O)N[C@@H](C)C(=O)N[C@@H]([C@@H](C)O)C(=O)N1)[C@@H](C)O)C(=O)N1CCC[C@H]1C(=O)N[C@@H](CO)C(=O)N[C@@H](CO)C(=O)N[C@H](C(=O)N[C@@H](CC(N)=O)C(=O)N[C@H](C(=O)NCC(=O)N[C@@H](CO)C(=O)N[C@@H](CCC(=O)O)C(=O)N[C@H](C(=O)N[C@@H](Cc1ccc(O)cc1)C(N)=O)[C@@H](C)O)C(C)C)[C@@H](C)O
notes: also called 14E, 17R, 21P, 27P, 35E

Target: T1, human amylin receptor
Assay: SPA competition binding, displacement of 125I-rat amylin from membranes with human amylin 3(a) receptor (Assay V)
Procedure: The binding assay was performed using scintillation proximity assay (SPA) beads (RPNQ0001) from PerkinElmer and cell membranes from the Amylin 3(a)/CRE-luc cells (as described in Assay (II)) were used. Membranes were prepared in the following way; the cells were rinsed with PBS and incubated with Versene for approximately 5 min before harvesting. The cells were flushed with PBS and the cell-suspension was centrifuged for 5 min at 1000 rpm. Cells were homogenized (ultrathurrax) in a buffer containing 20 mM Na-HEPES and 10 mM EDTA (pH 7.4) and centrifuged at 20.000 rpm for 15 min. The resulting pellet was resuspended, homogenized and centrifuged (20.000 rpm, 15 min) in a buffer containing 20 mM Na-HEPES and 0.1 mM EDTA (pH 7.4, buffer 2). The resulting pellet was resuspended in buffer 2 and protein concentration was measured (BCA protein Assay, Pierce). The homogenate was kept cold during the whole procedure. The membranes were kept at −80° C. until use. The assay was performed in a 384 well Optiplate (PerkinElmer) in a total volume of 40 ul. Membranes were mixed with SPA beads. Final concentration of membranes 35 ng/μL final and SPA beads was 0.05 mg/well. Test-compounds were dissolved in DMSO and further diluted in assay buffer (50 mM Hepes, pH 7.4, 1 mM CaCl2, 5 mM MgCl₂, 0.1% OA and 0.02% Tween20). […] The final mixture was incubated with shaking at 400 rpm for 120 min at 25° C. prior to centrifugation (1500 rpm, 10 min). Samples were analyzed on TopCounter™ (Packard). The IC₅₀ was calculated using (one site binding competition analysis) GraphPad Prism5 as a measure of receptor affinity.

IC50	Binder
0.143 nM	B1
0.768 nM	B2
0.196 nM	B3
0.119 nM	B4
0.061 nM	B5
0.794 nM	B6

From patent US20140087995A1 (published 2014)
